Target: truncated form of ribosomal protein L2 (E. coli) (UniProt P60422)
Test: ELISA

Sequence of DnaAΔ129 lacking the N-terminal 129 residues (P03004 130-467, stated change not applied): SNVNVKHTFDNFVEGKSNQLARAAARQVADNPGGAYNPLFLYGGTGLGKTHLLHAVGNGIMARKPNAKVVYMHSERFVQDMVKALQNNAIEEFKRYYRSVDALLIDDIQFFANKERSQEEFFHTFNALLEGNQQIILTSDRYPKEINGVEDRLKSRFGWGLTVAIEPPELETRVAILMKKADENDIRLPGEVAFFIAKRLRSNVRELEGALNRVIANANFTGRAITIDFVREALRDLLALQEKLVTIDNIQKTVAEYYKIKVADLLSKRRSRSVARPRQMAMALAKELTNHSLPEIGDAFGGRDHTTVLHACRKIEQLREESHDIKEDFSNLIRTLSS

Work on “DnaAΔ129 lacking the N-terminal 129 residues (from UniProt P03004 130-467) (domain or fragment)” yielded a fold reduction of the interaction against wild-type DnaA of 4 fold.

Source: publication PMC3105425
